From patent publication US7423017B2, “Method for treating cartilage disorders” (Genentech, Inc., priority 1997, dated 2008)
Marks after values point to notes of the source that are not given here.

Columns and labels:
[1] = molecular target: T1, IGFBP-3 (Homo sapiens, UniProt P17936); assay: BIACORE kinetics: IGFBP-3 binding to immobilized IGF-1 variants; details: for Binding to IGFBP-3 ka: 25 C
T1 construct: made in house
Description: (§1) The binding affinities of the IGF variants for IGFBP-1 and IGFBP-3 were determined using a BIACORE™-2000 real time kinetic interaction analysis system (Biacore, Inc., Piscataway, N.J.) to measure association (ka) and dissociation (kd) rates. Carboxymethylated dextran biosensor chips (CM5, BIAcore Inc.) were activated with EDC (N-ethyl-N′-(3-dimethylaminopropyl)-carbodiimide hydrochloride) and NHS(N-hydroxysuccinimide) according to the supplier's instructions. For immobilization, IGF mutants in 20 mM sodium acetate, pH 4.8, were injected onto the biosensor chip at a concentration of 50 μg/ml to yield approximately 450-600 RU's (resonance-responce units) of covalently-coupled protein. Unreacted groups were blocked with an injection of 1 M ethanolamine. Kinetic measurements were carried out by injecting two-fold serial dilutions (starting at 1 μM) of either IGFBP-1 or IGFBP-3 in running buffer (PBS, 0.05% TWEEN 20™, 0.1% ovalbumin, 0.1% sodium azide) at 25 °C using a flow rate of 20 μl/min. Association rates (ka) and dissociation rates (kd) were calculated separately using a 1:1 Langmuir™ association model in the BIACORE™ evaluation software v. 3.0. The equilibrium dissociation constant (KD) was calculated as kd/ka.

[2] = molecular target: T2, IGFBP-1 (Homo sapiens, UniProt P08833); assay: BIACORE kinetics: IGFBP-1 binding to immobilized IGF-1 variants; parameters: made in house; host or cells: CHO cells; details: for Binding to IGFBP-1 ka: 25 C
T2 sequence (P08833 26-259): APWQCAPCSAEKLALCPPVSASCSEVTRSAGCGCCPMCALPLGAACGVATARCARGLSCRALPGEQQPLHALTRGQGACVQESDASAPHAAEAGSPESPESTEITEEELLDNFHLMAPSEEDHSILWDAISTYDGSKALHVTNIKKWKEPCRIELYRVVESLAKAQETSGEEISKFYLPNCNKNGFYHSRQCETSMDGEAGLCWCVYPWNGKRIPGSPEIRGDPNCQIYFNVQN
Description: as §1
(§2) For measurements of IGFBP-1 binding to IGF-1, kinetics experiments were conducted using a single-cysteine IGF-1 variant, Y31C, that was immobilized onto the sensor chip surface via a disulfide linkage (BIACORE™ System Manual Supplement, 5a-1, Pharmacia (1991)).

[3] = test system: IGFBP-1; assay: as above; parameters: species or system human; details: from relative KD values
Description: as §1, §2

[4] = molecular target: T1, IGFBP-3; assay: competitive phage ELISA of IGF-1 mutants, IGFBP-3; type: binding; details: phage display, soluble IGFBP-3 competitor
Description: (§3) An alanine-scanning mutagenesis approach (Cunningham and Wells, Science, 244: 1081-1085 (1989); U.S. Pat. No. 5,834,250) was used to remove that portion of each side chain of IGF-1 beyond the beta carbon. The contribution of these atoms to the free energy of binding of the IGF-1 analog to IGFBP-1 or to IGFBP-3 was then assessed by competitive phage ELISA. In this assay, IGFBP-1 or IGFBP-3 is used to inhibit IGF-phage mutants from binding to an IGFBP-1- or IGFBP-3-coated immunosorbant plate.
(§4) Immunosorbent plates (Nunc, MAXISORP™, 96 wells) were coated with 100 μl/well of 1 μg/ml IGFBP-1 or IGFBP-3 in PBS buffer pH 7.2 at 4° C. overnight. The plates were then blocked with 0.5% TWEEN 20™/PBS (also used as binding buffer) for 2 hours at room temperature (proteinaceous blocking agents like bovine serum albumin were avoided to prevent potential IGF or IGFBP contamination). E. coli cells (XL1-Blue, Stratagene) freshly transformed with phagemid vector were grown overnight in 5 mL 2YT medium (Sambrook et al., supra) in the presence of M13-VCS helper phage (Stratagene). Phage particles were harvested and resuspended in PBS buffer as described in Lowman, H. B., “Phage Display of Peptide Libraries on Protein Scaffolds,” in Cabilly, S. (ed.), Combinatorial Peptide Library Protocols (Humana Press Inc.: Totowa, N.J., 1998), pp. 249-264. Then phage concentrations were normalized to yield a maximal ELISA signal of 0.2-0.4 for each mutant (Lowman, in Cabilly, S. (ed.), supra). Threefold serial dilutions of soluble competitor were prepared on non-absorbent microtiter plates (Nunc, F, 96 wells) with binding buffer (0.5% TWEEN 20™/PBS) containing phage at the previously determined concentrations. The dilution range of competitor protein extended over six orders of magnitude, starting at 5 μM for IGFBP-1 and 500 nM for IGFBP-3. After blocking, the plates containing immobilized target were washed with 0.05% TWEEN™/PBS buffer and subsequently incubated with 80 μl/well of the premixed phage-competitor solutions for 1 hour at room temperature. After washing, bound phage was detected with 80 μl/well of a solution containing a primary rabbit anti-phage polyclonal antibody and a secondary goat anti-rabbit monoclonal antibody-horseradish peroxidase conjugate in 0.5% TWEEN 20™/PBS. o-Phenylenediamine (Sigma) and tetramethylbenzidine (Kirkegaard and Perry) were used as chromogenic substrates, resulting in product detection at 492 and 450 nm, respectively. IC50 values were determined by fitting the binding data to a generic saturation curve (Lowman, in Cabilly, S. (ed.), supra). At least two individual clones of each IGF-1 mutant were assayed. Numbers in Table XIII represent mean±standard deviation of individually assessed IC50 values.

[5] = test system: IGFBP-1; assay: competitive phage ELISA of IGF-1 mutants, IGFBP-1; type: binding, human; details: relative IC50 IGFBP-1/relative IC50 IGFBP-3
Description: as §3, §4

[6] = molecular target: T2, IGFBP-1; assay: competitive phage ELISA of IGF-1 mutants, IGFBP-1; type: binding; parameters: made in house; host or cells: CHO cells; details: phage display, soluble IGFBP-1 competitor
Description: as §3, §4

[7] = blood clearance, pharmacokinetics and tissue distribution of radiolabeled IGF-1 variants, IV in rats; type: in vivo, rat; details: single IV dose in rats

T1 sequence (P17936 28-291): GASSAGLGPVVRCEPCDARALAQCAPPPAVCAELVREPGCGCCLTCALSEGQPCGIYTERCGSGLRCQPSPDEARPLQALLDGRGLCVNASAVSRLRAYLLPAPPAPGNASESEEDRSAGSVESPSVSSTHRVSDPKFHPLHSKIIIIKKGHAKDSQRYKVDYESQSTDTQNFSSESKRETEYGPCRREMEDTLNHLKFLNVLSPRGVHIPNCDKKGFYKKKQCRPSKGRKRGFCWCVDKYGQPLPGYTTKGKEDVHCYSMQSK

Substance | Binding to IGFBP-3 ka [1] | Binding to IGFBP-1 ka [2] | Specificity Relative BP-1 / Relative BP-3 [3] | IC50 [4] | relative specificity [5] | IC50 [6] | Half-life t1/2^α [7] | Half-life t1/2^β [7] | Half-life t1/2^γ [7] | clearance [7] | steady-state distribution volume [7] | Binding to IGFBP-3 KD ([1]; kd/ka) | Binding to IGFBP-1 KD ([2]; kd/ka)
V11A: IGF-1 single alanine mutant | 3.1 ± 0.5 ×10^5 M^−1s^−1 | 1.9 ± 0.1 ×10^4 M^−1s^−1 | 1.1 | – | – | – | – | – | – | – | – | – | –
T4A: IGF-1 single alanine mutant | 1.8 ± 0.6 ×10^5 M^−1s^−1 | 1.9 ± 0.2 ×10^4 M^−1s^−1 | 3.3 | 0.8 ± 0.02 nM | 2.2 | 19.4 ± 6.4 nM | – | – | – | – | – | – | –
^125I-F49A: radiolabeled F49A IGF-1 | – | – | – | – | – | – | 3.84 ± 3.12 min | 0.971 ± 0.336^+ hr | 8.97 ± 4.50 h | 427 ± 125*^+ ml/hr/kg | 3201 ± 488*^+ ml/kg | – | –
R36A: IGF-1 single alanine mutant | 4.0 ± 0.1 ×10^5 M^−1s^−1 | 4.0 ± 0.2 ×10^4 M^−1s^−1 | 1.4 | – | – | – | – | – | – | – | – | wild-type kinetics | wild-type kinetics
G1S-A70V: IGF-1 double mutant, first and last amino acids changed; template for alanine scan | 2.9 ± 0.8 ×10^5 M^−1s^−1 | 3.2 ± 0.2 ×10^4 M^−1s^−1 | 0.7 | – | 1.0 | – | – | – | – | – | – | – | –
